This assay deals with E. coli RecQ helicase, wild type (E. coli, UniProt P15043 1-609). As to the kind of experiment: fluorescence polarisation.
Chain of E. coli RecQ helicase, wild type (P15043 whole entry): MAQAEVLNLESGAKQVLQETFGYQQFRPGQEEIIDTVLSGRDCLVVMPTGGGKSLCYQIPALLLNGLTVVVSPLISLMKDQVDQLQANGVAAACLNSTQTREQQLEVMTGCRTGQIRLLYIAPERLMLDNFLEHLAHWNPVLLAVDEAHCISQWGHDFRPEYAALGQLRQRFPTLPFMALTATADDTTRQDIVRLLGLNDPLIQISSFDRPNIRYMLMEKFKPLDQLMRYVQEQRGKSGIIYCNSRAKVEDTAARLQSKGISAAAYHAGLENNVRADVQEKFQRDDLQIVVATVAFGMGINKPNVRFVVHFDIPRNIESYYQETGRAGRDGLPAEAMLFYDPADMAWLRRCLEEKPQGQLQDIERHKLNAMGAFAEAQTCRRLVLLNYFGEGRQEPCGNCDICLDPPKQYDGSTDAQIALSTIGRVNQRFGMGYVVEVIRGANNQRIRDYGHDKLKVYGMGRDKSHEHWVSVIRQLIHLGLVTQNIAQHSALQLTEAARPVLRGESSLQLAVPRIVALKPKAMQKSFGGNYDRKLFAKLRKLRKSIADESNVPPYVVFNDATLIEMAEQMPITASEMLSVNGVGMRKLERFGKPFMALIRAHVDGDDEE

As for MDFDDDIPF (fluorescein on the N-terminus) [N-terminally fluorescein-labeled SSB C-terminal peptide (Flu-MDFDDDIPF)], the binding result is “binds”.
